Where two headings read alike, the source gives them in different places.

We go through 3 molecules from US20090280060A1, “PHOTOCHROMIC PROBES” (priority 2004, published 2009).

Data set [1] is described as follows: Absorption maximum of the MC state. Format: physicochemical. An excerpt: The family of Ca^2+-optical switch described in this invention has built-in design features that can be used to tune the maximum of the action spectrum for the MC-SP transition. The nitro group generates a weakly fluorescent MC state, which can be used to quantify the kinetics of Ca^2+-perturbations and to image the distribution of the MC state within living cells.
The absorption properties of the MC state of the Ca^2+ switch can be tuned using different 1-nitroso-2-naphthol. […] We will investigate the photophysics of optimized Ca^2+ switches based on spironaphthoxazine. We anticipate, based on our observations of the thermally-induced MC to SP transition that the rate of photochemistry for the spironaphthoxazine will be faster that the 11 μs reported for the spirobenzopyran group (Gorner, 2001).

Data set [2] in a line: Thermally driven MC to SP transition, decrease of MC absorption in the dark. Format: physicochemical. As to the method: FIG. 7. (A), Time dependent absorption spectra of the lowest energy transition of the MC state of compound 12 dissolved in ethanol at a concentration of 20 μM at 20° in the dark—the spectra, from top to bottom, were recorded at the following times: a) 0; b), 60 s, c), 120 s; d), 180 s; e), 240 s; f), 360 s; g), 420 s; h), 480 s. The lowermost curve is the absorption spectrum of the non-irradiated SP state. (B), The rate for the thermally driven MC to SP transition was determined by analyzing the log of the maximum absorption value for each spectrum shown in FIG. 7A as a function of time. The reaction rate of […] was calculated using a least squares fitting procedure. (C), Absorption spectra of the MC-G-actin conjugate (compound 9) as a function of time in the dark. Spectra are as follows: a), before irradiation; b), after 30 second irradiation with 365 nm light; c), after 5 minutes in the dark at 20°; d), after 22 minutes in the dark at 20°; e) after irradiation with 546 nm light for 30 seconds
Thermally-driven transitions between MC and SP. The rate for the thermal equilibration of MC to SP in ethanol was measured using the decrease in the maximum MC absorption value as a function of time in the dark (FIGS. 7A,B). […] This rate, however, is too fast for many of the envisioned applications of optical switches in biology. […]

The target of data set [3] is barbed-end of the actin filament. To be noted: Ca^2+-dependent; Southwick & DiNubile, 1986; read-out: kd for binding to the barbed-end of the actin filament; cited from earlier work.
Data set [4] has as its target T1, G-actin (Oryctolagus cuniculus, UniProt P68135). As to the kind of experiment: Prodan-actin polymerization kinetics. Further details: Rabbit muscle G-actin is purified according to Marriott (1994); from tissue; host or cells: rabbit muscle. Format: biochemical, Rabbit. The protocol: (§1) FIG. 20: Caging of CapG (A): Absorption spectra of […] samples of CapG (2), caged CapG (curve 1).
(§2) Preparation and characterization of caged CapG: Caged CapG was prepared using a modification of our published method for caging actin and profilin (Marriott, 1994; Marriott et al, 2003). In brief a purified solution of CapG (1 mg/ml) was dialyzed against 20 mM borate buffer, pH 8.5 overnight. The protein was centrifuged and the OD280 nm measured to determine the protein concentration (FIG. 8A). A 0.1 M acetone solution of NVOC-Cl was freshly prepared and added to the CapG with vigorous vortexing to a final concentration of 1 mM. This was usually realized by 2-3 additions over a 5-minute period. After 30 minutes at room temperature in the dark, the protein was centrifuged and dialyzed against 2×500 ml of G-buffer overnight. The absorption spectrum of the protein was recorded using the dialysis buffer as a reference and the amount of NVOC was determined by measuring the A350nm (E350nm=5,000 M^−1cm^−1). The concentration of protein was determined using the Bio-Rad Bradford assay. The introduction of 3-4 NVOC groups was sufficient to inhibit the formation of G-actin-CapG using two independent assays based on sensitivity of Prodan-actin to CapG binding. In FIG. 20B, CapG binding to Prodan-G-actin is seen to shift the emission spectrum, from 496 nm to 465 nm, and is accompanied by a 1.5 fold (FIG. 20B, curve 1)—this signal can be used to analyze the effects of CapG on actin polymerization kinetics as shown in FIG. 20C.

Data set [5] deals with T1, G-actin. As to the kind of experiment: CapG binding to Prodan-G-actin (fluorescence). Also on record: Rabbit muscle G-actin is purified according to Marriott (1994); from tissue; host or cells: rabbit muscle; species or system Rabbit. The protocol:
as §1
as §2, with “In FIG. 20B, CapG binding to Prodan-G-actin is seen to shift the emission spectrum, from 496 nm to 465 nm, and is accompanied by a 1.5 fold (FIG. 20B, curve 1)—this signal can be used to analyze the effects of CapG on actin polymerization kinetics as shown in FIG. 20C.” left out

As to `CN1c2cc(CBr)ccc2C(C)(C)C12C=Nc1c(ccc3ccccc13)O2` (centres unmarked) [Compound 17, 6′-(Bromomethyl)spironaphthoxazin], in data set [1], the “MC state absorption maximum” value is listed as “about 620 nm”. For the same molecule, the “thermal reversion to the SP state” value in data set [2] was “within seconds”.

B1: CapG: 40 kD, Ca^2+ regulated actin filament barbed-end capping protein, His-tagged, cloned from mouse cDNA library (protein, UniProt P24452 1-352, looked up)
Macrophage-capping protein: MYTPIPQSGSPFPASVQDPGLHIWRVEKLKPVPIARESHGIFFSGDSYLVLHNGPEEASHLHLWIGQQSSRDEQGACAVLAVHLNTLLGERPVQHREVQGNESDLFMSYFPRGLKYYREGGVESAFHKTTSGARGAAIRKLYQVKGKKNIRATERPLSWDSFNTGDCFILDLGQNIFAWCGGKSNILERNKARDLALAIRDSERQGKAQVEIITDGEEPAEMIQVLGPKPALKEGNPEEDITADQTRPNAQAAALYKVSDATGQMNLTKVADSSPFASELLIPDDCFVLDNGLCAQIYIWKGRKANEKERQAALQVADGFISRMRYSPNTQVEILPQGRESPIFKQFFKNWK
modifications: His tag
notes: 40 kD, Ca^2+ regulated actin filament barbed-end capping protein, His-tagged, cloned from mouse cDNA library
In the case of B1, the Kd in data set [3] was 1000 nM; with G-actin [5] (data not shown, read-out: kd of complex with G-actin), 100 nM. Besides, the “effect on actin polymerization” value with G-actin [4] is “inhibits the polymerization of G-actin”.

B2: caged CapG: CapG labeled with 3-4 NVOC groups using NVOC-Cl (protein, UniProt P24452 1-352, looked up)
Macrophage-capping protein: B1 Macrophage-capping protein
modifications: caged with 3-4 NVOC groups
notes: CapG labeled with 3-4 NVOC groups using NVOC-Cl
For B2, the results for the “effect on actin polymerization” value in the data set with G-actin [4] and in the data set with G-actin [4] (listed as Caged CapG) were “limited effect on the rate of actin polymerization” and “almost normal polymerization kinetics”, respectively. In addition, the “binding to G-actin” value with G-actin [5] (Prodan-G-actin) is “binds poorly to G-actin”.
